Like-named read-outs stand apart in the source and are kept apart here.
B1: Cyp2b-KD2: lentiviral shRNA construct targeting mouse Cyp2b subfamily; siRNA sequence AAGAACACTGAGGTGTACCCC (nucleic acid)
DNA: GGATCCCAAGAACACTGAGGTGTACCCCTTGATATCCGGGGGTACACCTCAGTGTTCTTTTTTTTCCAACTCGAG
B2: Cyp2b-KD3: lentiviral shRNA construct targeting mouse Cyp2b subfamily; siRNA sequence CAGGAAAGCGCATTTGTCTTG (nucleic acid)
DNA: GGATCCCGCAAGACAAATGCGCTTTCCTGTTGATATCCGCAGGAAAGCGCATTTGTCTTGTTTTTTCCAACTCGAG
B3: scrambled-shRNA: control shRNA construct with scrambled sequence that does not recognize any murine mRNAs (nucleic acid)
chain: GGATCCCGACGATTCGAGGCGCAGTGATTTGATATCCGATCACTGCTCCTCGAATCGTCTTTTTTCCAACTCGAG

How the values were obtained:
[1] = test system: Cyp2b-knockdown mice; details: mouse, in vivo
[2] = test system: Cyp2b-knockdown mice; assay: Chlorpyrifos toxicity in Cyp2b-knockdown mice; assay type: in vivo, mouse; details: 10 mg/kg ip
Protocol: Chlorpyrifos: Similar to parathion, chlorpyrifos is an organophosphate insecticide that activates CAR, but chlorpyrifos is more toxic to wild-type mice. Initial toxicity is outwardly shown by mucous discharge from the eyes and later by reduced activity or complete lethargy, similar to other acetylcholinesterase inhibitors. Mice are injected ip with 10 mg/kg of chlorpyrifos and watched for behavioral changes. Mice showing toxicity are immediately euthanized to avoid unnecessary distress or pain. Statistical differences are determined using a Fisher's 2×2 test (StatView®, SAS Institute, Cary, N.C.).

[3] = test system: Cyp2b-knockdown mice; details: 75 mg/kg ip, observed 30 minutes
Protocol: Strychnine: Strychnine is a Cyp2b-inducer (Oguri et al., Arch. Biochem. Biophys. 287:105 (1991); Yamada et al., Arch. Biochem. Biophys. 299:248 (1992)) and therefore a potential CAR agonist. Strychnine is administered ip (75 mg/kg in saline) and observed for 30 minutes. Latency time to the first convulsions and number of animals showing convulsion is noted. […] Statistical analysis is performed using Fisher's 2×2 tests.

[4] = test system: Cyp2b10 mRNA; assay: Q-PCR of Cyp2b10 mRNA in TCPOBOP-induced primary mouse hepatocytes transduced with lentiviral shRNA constructs; assay type: cell-based; details: for reduction of Cyp2b10 expression: MOI 20 and/or 5, vs scrambled lentivirus
Protocol: (§1) Q-PCR is performed to determine the efficacy of shRNA knockdown of the Cyp2b gene subfamily. Total RNA is isolated using a modified guanidinium thiocyanate-phenol-chloroform extraction protocol with TRI-reagent (Sigma, St. Louis, Mo.) according to the manufacturer's specifications followed by DNAse (Promega Corporation, Madison Wis.) treatment to remove residual genomic DNA. RNA is quantified spectrophotometrically and stored at −80° C. Reverse transcription is performed to create cDNA using MMLV-RT, a dNTP mixture, and random decamers. cDNA is stored at −20° C. Q-PCR is performed as described previously (Roling et al., Mar. Environ. Res. 57:377 (2004)). Briefly, to generate a standard curve and determine PCR efficiency, cDNA is combined and a 2×, 1:1, 1:10, 1:100, and 1:1000 dilution made. […] Amplifications are performed in triplicate using a 96-well MyiQ™ Real-Time PCR Detection System (Bio-Rad) with 0.25× SybrGreen as the fluorescent double strand-intercalating agent to quantify gene expression. The advantage of Q-PCR is having enough material to investigate a decrease of several Cyp2b isoforms as well as confirm that other P450 subfamilies are unaffected (Cyp3a, 2c).
(§2) Q-PCR results are normalized to the expression of the two housekeeping genes, β-Actin and 18S rRNA. A minimum of forty cycles is run on all real time samples to ensure a log based growth curve. Quantification is done by taking the efficiency curve of the Q-PCR reaction to the power of the threshold cycle (Ct). Samples are normalized to reference genes (β-actin and 18S rRNA) quantified for each sample. The formula for calculating normalized gene expression is NE={Eref}^Ct-ref/{Etarget}^Ct-target where NE is normalized gene expression, E is the efficiency of amplification for a particular gene, Ct is the threshold cycle, ref is the housekeeping gene (β-actin and 18S rRNA), and target is the gene of interest (Muller et al., Biotechniques 32:1372 (2002)).
(§3) The efficacy of the Cyp2b-KD2 and Cyp2b-KD3 lentiviral constructs to repress the expression of the Cyp2b subfamily members, Cyp2b9 and Cyp2b10 was tested using primary mouse hepatocytes. Primary mouse hepatocytes were plated in 6-well plates, treated with the CAR activator TCPOBOP to induce Cyp2b subfamily members (especially Cyp2b10) and then infected with either scrambled, Cyp2b-KD2 or Cyp2b-KD3 at a multiplicity of infection (MOI) of 20 and/or 5. The percentage of cells infected based on the presence of green fluorescence using fluorescent microscopy was approximately 65-80+% in KD2 transduced cells at a MOI of 5 and a about 55-70% in KD3 transduced cells at a MOI of 5.

[5] = test system: Cyp2b9 mRNA; assay: Q-PCR of Cyp2b9 mRNA in TCPOBOP-induced primary mouse hepatocytes transduced with lentiviral shRNA constructs; assay type: cell-based
Protocol: as §1, §2, §3

[6] = test system: primary mouse hepatocytes; assay: Percentage of cells infected, by green fluorescence microscopy; assay type: cell-based; details: MOI of 5
Protocol: as §3

[7] = TCPOBOP-treated primary mouse hepatocytes

Molecule | Cyp2b10 expression relative to cells treated with the scrambled shRNA (in words) [4] | reduction of Cyp2b10 expression [4, 7] | Cyp2b9 expression relative to cells treated with the scrambled shRNA (in words) [5] | percentage of cells infected based on green fluorescence [6] | also measured
CC(=O)Nc1ccc(O)cc1 [acetaminophen] |  |  |  |  | toxicity in TCPOBOP-treated mice [1]: greatest amount of toxicity
CCOP(=S)(OCC)Oc1nc(Cl)c(Cl)cc1Cl [chlorpyrifos] |  |  |  |  | sensitivity as compared to wild-type mice [2]: decreased sensitivity
O=C1C[C@@H]2OCC=C3CN4CC[C@]56c7ccccc7N1[C@H]5[C@H]2[C@H]3C[C@H]46 [strychnine] |  |  |  |  | protection from convulsions [3]: protection
B1 | reduced | 75-98% | reduced | 65-80% | reduction of Cyp2b9 expression ([5]; TCPOBOP-treated primary mouse hepatocytes, MOI 20 and/or 5, vs scrambled lentivirus): 75-98%
B2 | only KD2 reduced | 50% | not reduced | 55-70% | Cyp2b9 expression relative to cells treated with the scrambled shRNA (in words) ([5]; listed as KD3): reduced
B3 |  |  |  |  | Cyp2b10 expression relative to uninfected cells (in words) [4, 7]: did not reduce; Cyp2b9 expression relative to uninfected cells (in words) [5, 7]: did not reduce

Source: US8217161B2, “Methods of inhibiting multiple cytochrome P450 genes with siRNA” (Clemson University Research Foundation, priority 2008, dated 2012)
